For experiment [1], the target named is T1, SAI/II antigen (SAI/II adhesion of S. mutans) (Streptococcus mutans, UniProt P23504 39-1532).
T1 construct: Coated on ELISA plates at 1 ug/ml in PBS
T1 sequence (looked up): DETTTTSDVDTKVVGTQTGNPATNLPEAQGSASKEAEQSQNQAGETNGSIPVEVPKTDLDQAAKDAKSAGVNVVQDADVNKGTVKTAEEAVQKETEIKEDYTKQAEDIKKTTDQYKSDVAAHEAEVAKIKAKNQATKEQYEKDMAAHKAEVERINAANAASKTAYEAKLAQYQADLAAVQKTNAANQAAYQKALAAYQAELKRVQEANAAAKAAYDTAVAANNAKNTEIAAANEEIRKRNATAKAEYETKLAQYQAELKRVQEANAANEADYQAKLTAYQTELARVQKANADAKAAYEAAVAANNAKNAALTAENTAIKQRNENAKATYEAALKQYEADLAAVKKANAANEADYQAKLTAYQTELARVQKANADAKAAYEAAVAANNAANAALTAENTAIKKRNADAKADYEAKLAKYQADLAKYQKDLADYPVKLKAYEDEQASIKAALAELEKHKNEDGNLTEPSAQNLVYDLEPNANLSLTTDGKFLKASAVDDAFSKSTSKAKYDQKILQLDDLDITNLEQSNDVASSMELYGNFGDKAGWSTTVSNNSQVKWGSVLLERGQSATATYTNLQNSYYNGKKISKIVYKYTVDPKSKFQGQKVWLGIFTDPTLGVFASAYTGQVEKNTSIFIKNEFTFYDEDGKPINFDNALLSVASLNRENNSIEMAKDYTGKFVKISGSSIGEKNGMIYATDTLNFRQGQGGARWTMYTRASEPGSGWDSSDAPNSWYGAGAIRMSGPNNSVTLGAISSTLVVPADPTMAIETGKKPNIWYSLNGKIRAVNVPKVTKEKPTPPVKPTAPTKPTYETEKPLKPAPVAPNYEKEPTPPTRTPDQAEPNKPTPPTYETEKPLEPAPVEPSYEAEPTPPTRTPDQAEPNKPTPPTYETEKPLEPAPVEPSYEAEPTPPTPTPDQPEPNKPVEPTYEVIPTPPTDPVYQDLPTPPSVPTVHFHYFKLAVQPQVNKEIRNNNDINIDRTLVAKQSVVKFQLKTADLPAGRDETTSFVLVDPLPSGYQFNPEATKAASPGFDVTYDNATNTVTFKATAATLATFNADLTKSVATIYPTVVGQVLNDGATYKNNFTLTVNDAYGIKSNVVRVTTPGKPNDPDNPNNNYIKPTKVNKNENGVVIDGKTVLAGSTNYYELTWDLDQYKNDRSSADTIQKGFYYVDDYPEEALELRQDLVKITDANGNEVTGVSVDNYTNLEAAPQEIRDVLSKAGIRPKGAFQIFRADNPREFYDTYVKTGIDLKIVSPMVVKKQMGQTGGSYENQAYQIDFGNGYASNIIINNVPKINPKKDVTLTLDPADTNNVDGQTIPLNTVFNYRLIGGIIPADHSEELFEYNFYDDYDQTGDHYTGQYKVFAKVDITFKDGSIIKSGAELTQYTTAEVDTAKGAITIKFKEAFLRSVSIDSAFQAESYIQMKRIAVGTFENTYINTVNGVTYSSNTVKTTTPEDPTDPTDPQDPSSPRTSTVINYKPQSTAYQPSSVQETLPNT
Description: ELISA, SAI/II coated, whole bacterial cells; integrated strain against plasmid strain (same polypeptide, different amount). (In general: ELISA stands for enzyme-linked immunosorbent assay.)

Experiment [2] has as its target T1, SAI/II antigen (SAI/II adhesion of S. …). In words: ELISA, SAI/II coated, culture supernatant; integrated strain against plasmid strain (same polypeptide, different amount).

B1: surface anchored scFv anti-SAI/II (E-tagged) fused to the prtP anchor region, displayed on L. paracasei pAF900 (plasmid) or L. paracasei EM181 (chromosomally … (scFv)
scFv: AIVEGSAAQPAMDAQVKLQESGPDLVKPGASVKISCKASGYTFTDYNIHWVKQSRGKSLEWIGYIYPYNGNTYYNQKFKNKATLTVDNSSTSAYMELRSLTPEDSAVYYCATYFDYWGQGTTVTVSSGGGGSGGGGSGGGGSDIELTQSPAIMSASPGEKVTITCSASSSVSYMHWFQQKPGTSPKLWLYSTSNLASGVPARFSGSGSGTSYSLTISRMEAEDAATYYCHQRTSYPYTFGGGTKLEIKRAAAAGAPVPYPDPLEPRAAASKKTSLLNQLQSVKAALGTDLGNQTDPSTGKTFMAALDDLVAQAQAGTQTADQLQASLAKVLDAVLAKLAEGIKAATPAEVGNAKDAATGKTWYADIADTLTSGQASADASDKLAHLQALQSLKTKVAAAVEAAKTAGKGDDTSGTSDKGGGQGTPAPAPGDTGKNKGDEGSQPSSGGNIPTKPATTTSTSTDDTTDRNGQHTSGKGALPKTAETTERPAFGFLGVIVVSLMGVLGLKRKQREE
modifications: On the cells the chain is covalently linked to the cell wall through the prtP anchor (LPXTG-type motif, here LPKTA at residues 478-482).
notes: Same polypeptide from the plasmid strain and the integrated strain (pEM181 = pEM76 with the expression cassette of pAF900); tested as whole bacterial cells; (precursor, before any processing on anchoring to the cell wall); also called pEM181
Turning to B1, in experiment [1], the “fold lower binding level than L. paracasei pAF900” value was below 16 fold.

B2: secreted scFv anti-SAI/II (E-tagged) produced by L. paracasei pAF100 (plasmid) or L. paracasei EM182 (chromosomally integrated) (scFv)
scFv: AIVEGSAAQPAMDAQVKLQESGPDLVKPGASVKISCKASGYTFTDYNIHWVKQSRGKSLEWIGYIYPYNGNTYYNQKFKNKATLTVDNSSTSAYMELRSLTPEDSAVYYCATYFDYWGQGTTVTVSSGGGGSGGGGSGGGGSDIELTQSPAIMSASPGEKVTITCSASSSVSYMHWFQQKPGTSPKLWLYSTSNLASGVPARFSGSGSGTSYSLTISRMEAEDAATYYCHQRTSYPYTFGGGTKLEIKRAAAAGAPVPYPDPLEPRAA
notes: Same polypeptide from the plasmid strain and the integrated strain (pEM182 = pEM76 with the expression cassette of pAF100); tested as culture supernatant; also called pEM182
As to B2, the “fold reduction in binding activity against the corresponding plasmid system (L. paracasei pAF100)” value in experiment [2] is at least 8 fold.

B3: secreted and attached scFv anti-SAI/II (E-tagged) fused to the middle region and C-terminal domain of APF, produced by L. paracasei pAF400 (plasmid) or L. … (scFv)
scFv: AIVEGSAAQPAMDAQVKLQESGPDLVKPGASVKISCKASGYTFTDYNIHWVKQSRGKSLEWIGYIYPYNGNTYYNQKFKNKATLTVDNSSTSAYMELRSLTPEDSAVYYCATYFDYWGQGTTVTVSSGGGGSGGGGSGGGGSDIELTQSPAIMSASPGEKVTITCSASSSVSYMHWFQQKPGTSPKLWLYSTSNLASGVPARFSGSGSGTSYSLTISRMEAEDAATYYCHQRTSYPYTFGGGTKLEIKRAAAAGAPVPYPDPLEPRAAASEELYHTQAAVTQAPVQHQTQTENTNSAATTTAANNTNTQTTTSTVSGSEASAKEWIAGRESGGSYGASNGQYVGKYQLSASYLNGDYSAANQERVADNYVKGRYGSWTAAKAFWQANGWY
notes: Same polypeptide from the plasmid strain and the integrated strain (pEM171 = pEM76 with the expression cassette of pAF400); tested as culture supernatant and as whole cells (attached form); also called pEM171
Take B3: the “fold reduction in binding activity against the corresponding plasmid system (L. paracasei pAF400)” value in experiment [2] was determined as 4 fold.
